# In PMC4739419, “Mutations in the nucleotide binding and hydrolysis domains of Helicobacter pylori MutS2 lead to altered biochemical activities and inactivation of its in vivo function” (BMC Microbiology, 2016):
# T1: HpMutS2-G338R (Helicobacter pylori, UniProt O25338, G338R)
# T1 construct: (A) HpMutS2-G338R (1-762): Mol. wt; (kDa): 87.9; His6 (C); made in house; host or cells: E. coli Rosetta (DE3) pLysS
# T1 sequence (O25338 1-762 G338R): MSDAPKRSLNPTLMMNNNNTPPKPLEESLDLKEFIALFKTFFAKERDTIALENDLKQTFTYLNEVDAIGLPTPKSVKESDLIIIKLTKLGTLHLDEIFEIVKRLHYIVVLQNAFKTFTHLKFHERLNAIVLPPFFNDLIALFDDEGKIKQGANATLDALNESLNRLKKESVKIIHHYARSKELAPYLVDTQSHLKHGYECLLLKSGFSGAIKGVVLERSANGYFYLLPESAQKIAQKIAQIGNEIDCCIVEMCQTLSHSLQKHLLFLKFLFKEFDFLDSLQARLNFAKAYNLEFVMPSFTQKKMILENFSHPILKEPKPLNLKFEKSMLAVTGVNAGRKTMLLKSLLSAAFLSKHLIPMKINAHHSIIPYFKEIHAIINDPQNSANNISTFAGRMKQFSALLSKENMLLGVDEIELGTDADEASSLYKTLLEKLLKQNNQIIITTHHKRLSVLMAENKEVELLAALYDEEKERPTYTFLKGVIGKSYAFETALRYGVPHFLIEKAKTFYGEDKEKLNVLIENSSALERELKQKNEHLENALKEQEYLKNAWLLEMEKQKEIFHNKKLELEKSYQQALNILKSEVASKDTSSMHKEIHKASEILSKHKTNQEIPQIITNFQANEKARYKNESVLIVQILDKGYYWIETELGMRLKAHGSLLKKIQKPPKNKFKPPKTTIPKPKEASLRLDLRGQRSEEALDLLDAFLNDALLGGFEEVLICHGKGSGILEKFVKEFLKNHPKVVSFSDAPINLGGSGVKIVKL
# T2: HpMutS2-E413A (Helicobacter pylori, UniProt O25338, E413A)
# T2 construct: (A) HpMutS2-E413A (1-762): Mol. wt; (kDa): 87.7; His6 (C); made in house; host or cells: E. coli Rosetta (DE3) pLysS
# T2 sequence (O25338 1-762 E413A): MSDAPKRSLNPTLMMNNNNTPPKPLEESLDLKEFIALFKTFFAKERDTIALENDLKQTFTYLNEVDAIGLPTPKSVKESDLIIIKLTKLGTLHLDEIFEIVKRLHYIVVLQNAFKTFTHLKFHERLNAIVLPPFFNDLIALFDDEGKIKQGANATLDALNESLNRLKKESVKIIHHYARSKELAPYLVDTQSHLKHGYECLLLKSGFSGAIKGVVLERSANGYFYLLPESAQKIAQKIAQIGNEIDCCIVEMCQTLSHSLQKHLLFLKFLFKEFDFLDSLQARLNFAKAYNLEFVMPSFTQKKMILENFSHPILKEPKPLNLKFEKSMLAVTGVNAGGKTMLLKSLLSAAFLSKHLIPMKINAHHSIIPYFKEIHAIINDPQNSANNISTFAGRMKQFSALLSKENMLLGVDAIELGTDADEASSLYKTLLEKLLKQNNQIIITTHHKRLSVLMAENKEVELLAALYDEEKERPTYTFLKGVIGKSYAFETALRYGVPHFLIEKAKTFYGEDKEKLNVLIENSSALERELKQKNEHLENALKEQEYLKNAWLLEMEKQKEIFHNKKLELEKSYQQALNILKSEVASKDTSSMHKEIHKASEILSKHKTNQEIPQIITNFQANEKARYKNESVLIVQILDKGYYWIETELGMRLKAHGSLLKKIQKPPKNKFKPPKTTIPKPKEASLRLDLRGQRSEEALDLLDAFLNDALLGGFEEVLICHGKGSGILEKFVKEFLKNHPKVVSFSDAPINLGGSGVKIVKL
# T3: HpMutS2 (Helicobacter pylori 26695, UniProt O25338 1-762)
# T3 sequence: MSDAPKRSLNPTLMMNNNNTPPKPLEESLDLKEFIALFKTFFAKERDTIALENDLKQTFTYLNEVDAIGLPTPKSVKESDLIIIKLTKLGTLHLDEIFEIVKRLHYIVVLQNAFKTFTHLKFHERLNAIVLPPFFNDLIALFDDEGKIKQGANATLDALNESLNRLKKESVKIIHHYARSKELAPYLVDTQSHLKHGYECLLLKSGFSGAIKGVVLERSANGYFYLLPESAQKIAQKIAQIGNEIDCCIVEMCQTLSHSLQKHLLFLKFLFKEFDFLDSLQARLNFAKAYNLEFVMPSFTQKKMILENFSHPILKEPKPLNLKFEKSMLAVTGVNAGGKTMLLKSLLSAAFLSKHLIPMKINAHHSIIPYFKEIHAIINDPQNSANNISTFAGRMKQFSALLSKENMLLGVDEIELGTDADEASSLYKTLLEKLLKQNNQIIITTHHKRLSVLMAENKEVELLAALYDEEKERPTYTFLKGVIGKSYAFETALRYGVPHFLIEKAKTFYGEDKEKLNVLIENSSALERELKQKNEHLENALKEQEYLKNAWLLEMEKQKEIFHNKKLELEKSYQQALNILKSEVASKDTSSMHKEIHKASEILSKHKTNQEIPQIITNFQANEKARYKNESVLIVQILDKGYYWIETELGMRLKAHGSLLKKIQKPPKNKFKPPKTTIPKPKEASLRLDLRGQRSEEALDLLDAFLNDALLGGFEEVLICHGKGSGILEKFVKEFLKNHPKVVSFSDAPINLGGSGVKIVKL
# What was measured:
# HpMutS2-G338R [1] = target: T1, HpMutS2-G338R; assay: Tryptophan fluorescence-quenching nucleotide binding assay; conditions: no divalent metal ions, protein 1 μM, 25 °C; read-out: Kd (dissociation constant)
# Description: (§1) Next, the ATP hydrolysing abilities of HpMutS2-G338R and HpMutS2-E413A were tested and compared to that of wild-type HpMutS2. […] Therefore, to determine the nucleotide binding efficiencies of HpMutS2, HpMutS2-G338R, and HpMutS2-E413A, intrinsic fluorescence properties of these proteins were exploited. HpMutS2 has two tryptophan residues at positions 551 and 644. A fluorescence-quenching assay was used to determine the ATP and ADP binding affinities of HpMutS2 and its mutants. Quenching of the Trp fluorescence was recorded upon titration with ATP and ADP in absence of any divalent metal ions. Saturation isotherms generated from the changes in the fluorescence emission spectra of HpMutS2, HpMutS2-G338R, and HpMutS2-E413A were used to calculate the dissociation constants for ATP and ADP (Figs. 2a, b and c respectively).
# (§2) Fig. 2 Nucleotide binding affinities of a HpMutS2 b HpMutS2-G338R and c HpMutS2-E413A. Tryptophan fluorescence assays described in the Methods section were used to determine the nucleotide binding affinities of proteins.
# (§3) Fluorescence spectroscopy analysis of HpMutS2 was carried out based on the intrinsic fluorescent signal of tryptophan. The proteins were dialyzed in buffer B (50 mM Tris pH 8.0 and 100 mM NaCl) for 4–6 h with at least two changes of the buffer. Fluorescence intensities were measured on a Shimadzu, RF 5000 spectrofluorimeter using a 1-cm stirred quartz cuvette at 25 °C. The emission spectra were recorded over a wavelength of 300–400 nm with an excitation wavelength of 280 nm. To measure the dissociation constants for ATP and ADP, small aliquots of cofactor were added to proteins (1 μM), and spectra were recorded. Each spectra recorded was an average of three scans. The maximum fluorescence intensities observed at around 340 nm were selected for calculating the difference in intrinsic fluorescence of protein alone and in the presence of ligand. Control titrations were conducted and all the fluorescence emission spectra were corrected by subtracting control spectra. The dissociation constants were calculated graphically using a plot of ΔF/ΔFmax versus ligand concentration. ΔF is the magnitude of the difference between the observed fluorescence intensity at a given concentration of ligand and the fluorescence intensity in the absence of ligand and ΔFmax is the difference at saturating concentration of ligand.
# HpMutS2-E413A [2] = target: T2, HpMutS2-E413A; assay: as above; conditions: no divalent metal ions, protein 1 μM, 25 °C; read-out: Kd (dissociation constant)
# Description: as §1, §2, §3
# HpMutS2 [3] = target: T4, HpMutS2 (Helicobacter pylori, UniProt O25338); assay: as above; conditions: no divalent metal ions, protein 1 μM, 25 °C; read-out: Kd (dissociation constant)
# T4 construct: (A) HpMutS2 (1-762): Mol. wt; (kDa): 87.8; His6 (C); made in house; host or cells: E. coli Rosetta (DE3) pLysS
# Description: as §1, §2, §3
# HpMutS2-G338R [4] = target: T5, HpMutS2-G338R (Helicobacter pylori 26695, UniProt O25338 1-762, G338R); assay: EMSA; 1 mM ADP; EMSA: 0.16 nM DNA, buffer A (50 mM Tris pH 8.0, 50 mM NaCl, 1 mM DTT per Fig. S3 legend) with 0.1 ug/ul BSA, NaCl 110 mM, no divalent metal stated, 30 min on ice, 8% native PAGE at 4 C; nucleotides 1 mM; Hill-slope fit; conditions: protein: recombinant; tags: C-terminal His6; chain copies: 4; label: 5'-32P
# HpMutS2 [5] = target: T3, HpMutS2; assay: as above; conditions: protein: recombinant; tags: C-terminal His6; chain copies: 4; label: 5'-32P
# HpMutS2-G338R [6] = target: T5, HpMutS2-G338R; assay: EMSA; 1 mM ATP; EMSA: 0.16 nM DNA, buffer A (50 mM Tris pH 8.0, 50 mM NaCl, 1 mM DTT per Fig. S3 legend) with 0.1 ug/ul BSA, NaCl 110 mM, no divalent metal stated, 30 min on ice, 8% native PAGE at 4 C; nucleotides 1 mM; Hill-slope fit; conditions: protein: recombinant; tags: C-terminal His6; chain copies: 4; label: 5'-32P
# HpMutS2-G338R [7] = target: T5, HpMutS2-G338R; assay: EMSA; no nucleotide; EMSA: 0.16 nM DNA, buffer A (50 mM Tris pH 8.0, 50 mM NaCl, 1 mM DTT per Fig. S3 legend) with 0.1 ug/ul BSA, NaCl 110 mM, no divalent metal stated, 30 min on ice, 8% native PAGE at 4 C; nucleotides 1 mM; Hill-slope fit; conditions: protein: recombinant; tags: C-terminal His6; chain copies: 4; label: 5'-32P
# HpMutS2 [8] = target: T3, HpMutS2; assay: as above; conditions: protein: recombinant; tags: C-terminal His6; chain copies: 4; label: 5'-32P
# HpMutS2-E413A [9] = target: HpMutS2-E413A (Helicobacter pylori 26695, UniProt O25338 1-762, E413A); assay: EMSA; no nucleotide; no plateau, value not accurate; EMSA: 0.16 nM DNA, buffer A (50 mM Tris pH 8.0, 50 mM NaCl, 1 mM DTT per Fig. S3 legend) with 0.1 ug/ul BSA, NaCl 110 mM, no divalent metal stated, 30 min on ice, 8% native PAGE at 4 C; nucleotides 1 mM; Hill-slope fit; conditions: protein: recombinant; tags: C-terminal His6; chain copies: 4; label: 5'-32P
# HpMutS2 [10] = target: T3, HpMutS2; assay: EMSA; 1 mM ATPgS; EMSA: 0.16 nM DNA, buffer A (50 mM Tris pH 8.0, 50 mM NaCl, 1 mM DTT per Fig. S3 legend) with 0.1 ug/ul BSA, NaCl 110 mM, no divalent metal stated, 30 min on ice, 8% native PAGE at 4 C; nucleotides 1 mM; Hill-slope fit; conditions: protein: recombinant; tags: C-terminal His6; chain copies: 4; label: 5'-32P
Molecule,Kd (HpMutS2-G338R [1]),Kd (HpMutS2-E413A [2]),Kd (HpMutS2 [3]),Kd (HpMutS2-G338R [4]),Kd (HpMutS2 [5]),Kd (HpMutS2-G338R [6]),Kd (HpMutS2-G338R [7]),Kd (HpMutS2 [8]),Kd (HpMutS2-E413A [9]),Kd (HpMutS2 [10])
Nc1ncnc2c1ncn2[C@@H]1O[C@H](COP(=O)(O)OP(=O)(O)O)[C@@H](O)[C@H]1O [ADP],318000 ± 68500 nM,239000 ± 82900 nM,149000 ± 31800 nM,,,,,,,
ssDNA 63-mer (ODN4) (ssDNA) DNA: ATCGATAGTCGGATCCTCCAGACAGCTCCATGTAGCAAGGCACTGGTAGAATTCGGCAGCGTC,,,,23.9 ± 2.91 nM,17.3 ± 2.89 nM,30.7 ± 3.43 nM,32.4 ± 3.32 nM,21.5 ± 2.28 nM,~73.8 nM,11.4 ± 0.19 nM
